167 variants from the RNAGym collection of RNA variant scans (doi:10.7554/elife.80360) can be followed below.

Sequences and labels used below:
B1: CPEB3 Ribozyme (parent)
chain: GGGGGCCACAGCAGAAGCGUUCACGUCGCGGCCCCUGUCAGAUUCUGGUGAAUCUGCGAAUUCUGCUGU

In the data set the parent is B1. The data set can be described thus: self-cleavage, relative activity (ratio to wild type); higher = more cleavage; co-transcriptional.
Consider U26A C57G, for which the self-cleavage was found to be 0.216.

On to U26A C57U, for which the self-cleavage came out at 0.39.

As for U26C G37U, the self-cleavage was found to be 0.205.

As to U26C G37A, the self-cleavage worked out at 0.317.

Turning to U26C G68U, the self-cleavage was 1.01.

As to U26C G68A, the self-cleavage is 1.03.

For the variant G25C U62C, the self-cleavage is 0.158.

As for G25C U62G, the self-cleavage was 0.153.

With G25C U62A, the self-cleavage stood at 0.132.

For the variant U26C C54G, the self-cleavage worked out at 0.871.

In the case of U26C C54A, the self-cleavage came to 0.92.

U26C C54U: the self-cleavage was determined as 1.03.

Consider U26A G28C, for which the self-cleavage turned out to be 0.114.

In the case of U26A G28A, the self-cleavage worked out at 0.216.

As to G25U G47C, the self-cleavage is 0.11.

As to G25C C54U, the self-cleavage worked out at 0.133.

In the case of G25C C54G, the self-cleavage worked out at 0.162.

As for G25C C54A, the self-cleavage was determined as 0.136.

On to U26A U61G, for which the self-cleavage worked out at 0.559.

As for U26A U61C, the self-cleavage is 0.403.

For G25U G31C, the self-cleavage worked out at 0.191.

As for G25U G31A, the self-cleavage was determined as 0.163.

G25U G31U: the self-cleavage was determined as 0.182.

On to G25U G37C, for which the self-cleavage turned out to be 0.0933.

For the variant U26C G65A, the self-cleavage turned out to be 0.713.

For U26C G65C, the self-cleavage is 0.547.

Take U26A A52U: the self-cleavage turned out to be 0.816.

Take U26A A52G: the self-cleavage was found to be 0.825.

Regarding U26A A52C, the self-cleavage stood at 0.9.

Regarding U26A A60U, the self-cleavage amounted to 0.377.

Turning to U26A A60G, the self-cleavage came out at 0.478.

On to U26C U38C, for which the self-cleavage turned out to be 0.925.

With U26C U38A, the self-cleavage came out at 0.837.

Regarding U26C U38G, the self-cleavage came to 0.188.

Turning to G25C U64A, the self-cleavage came to 0.132.

For U26A C54U, the self-cleavage amounted to 0.909.

Turning to G25U A59C, the self-cleavage is 0.217.

On to G25U A59U, for which the self-cleavage was found to be 0.199.

U26C C35U: the self-cleavage came out at 0.964.

As to U26C C35G, the self-cleavage worked out at 0.375.

Take U26C U64C: the self-cleavage was 0.688.

Take U26C U64A: the self-cleavage came out at 0.768.

Take U26C U64G: the self-cleavage is 0.752.

For the variant U26C A40U, the self-cleavage came out at 0.733.

Take U26C A40G: the self-cleavage was 0.949.

As for U26C A40C, the self-cleavage turned out to be 0.455.

For U26C C33A, the self-cleavage amounted to 0.826.

Consider U26C C33G, for which the self-cleavage was 0.474.

U26A C66A: the self-cleavage was 0.637.

U26A C66G: the self-cleavage amounted to 0.635.

U26A C66U: the self-cleavage was determined as 0.946.

Consider G25C U44A, for which the self-cleavage was found to be 0.188.

In the case of U26C A42C, the self-cleavage is 1.01.

With U26C A42U, the self-cleavage turned out to be 0.964.

On to G25C G50U, for which the self-cleavage was 0.216.

Turning to G25C G50A, the self-cleavage is 0.186.

On to U26A U69G, for which the self-cleavage was determined as 0.977.

With U26A U69C, the self-cleavage was determined as 1.04.

Take G25U A40G: the self-cleavage came to 0.114.

As for G25U A40U, the self-cleavage turned out to be 0.208.

With G25U A40C, the self-cleavage was determined as 0.183.

Consider G25C C27G, for which the self-cleavage was found to be 0.225.

As to G25C C27U, the self-cleavage came to 0.172.

In the case of U26C A51U, the self-cleavage is 0.982.

In the case of U26C A51C, the self-cleavage is 0.972.

For the variant U26C A51G, the self-cleavage is 0.928.

With G25U G68U, the self-cleavage was 0.159.

G25U G68C: the self-cleavage stood at 0.225.

With U26A A59U, the self-cleavage is 0.404.

Consider U26A A59G, for which the self-cleavage was 0.923.

Turning to U26C C66G, the self-cleavage was 0.692.

U26C C66A: the self-cleavage was 0.585.

As for G25C C29U, the self-cleavage was determined as 0.126.

G25C C29G: the self-cleavage was determined as 0.148.

G25C C57A: the self-cleavage amounted to 0.14.

In the case of G25U C34G, the self-cleavage stood at 0.196.

Take G25U C34U: the self-cleavage was 0.151.

With G25U C35A, the self-cleavage was found to be 0.155.

As for G25U C35G, the self-cleavage came to 0.165.

Regarding G25C G30A, the self-cleavage turned out to be 0.25.

For G25C G30U, the self-cleavage was found to be 0.193.

Take G25C G30C: the self-cleavage was 0.171.

G25C U38A: the self-cleavage is 0.176.

For G25C U38C, the self-cleavage was determined as 0.166.

Consider G25C U38G, for which the self-cleavage was 0.187.

On to U26A U53A, for which the self-cleavage came to 0.806.

Take U26A U53G: the self-cleavage came to 0.647.

On to U26A U53C, for which the self-cleavage was determined as 0.724.

With U26A G30A, the self-cleavage worked out at 0.36.

In the case of G25U G30A, the self-cleavage is 0.16.

Consider G25U G30C, for which the self-cleavage came out at 0.14.

Turning to G25C G68U, the self-cleavage turned out to be 0.21.

G25C G68C: the self-cleavage turned out to be 0.18.

With G25C G68A, the self-cleavage stood at 0.255.

As to G25C C45U, the self-cleavage was 0.141.

Consider G25C C45G, for which the self-cleavage came out at 0.147.

Consider G25C C39U, for which the self-cleavage was 0.192.

With G25C C39A, the self-cleavage is 0.197.

For G25C C39G, the self-cleavage worked out at 0.164.

On to G25U U53A, for which the self-cleavage turned out to be 0.166.

On to G25U U53G, for which the self-cleavage came out at 0.226.

Consider G25U U53C, for which the self-cleavage stood at 0.112.

On to G25C U36G, for which the self-cleavage was 0.217.

With U26A C35A, the self-cleavage is 0.228.

U26A C35U: the self-cleavage amounted to 0.644.

In the case of G25C U49A, the self-cleavage was 0.14.

On to G25C U49G, for which the self-cleavage is 0.11.

As for G25U U64A, the self-cleavage is 0.132.

Consider G25U U64C, for which the self-cleavage is 0.103.

For U26C G56C, the self-cleavage stood at 0.634.

Regarding U26C G56U, the self-cleavage turned out to be 0.854.

G25U G65C: the self-cleavage was 0.105.

Regarding U26C U69A, the self-cleavage amounted to 1.01.

Regarding U26C U69C, the self-cleavage came out at 1.06.

U26C G31U: the self-cleavage was determined as 0.658.

For U26C G31A, the self-cleavage worked out at 0.838.

Regarding U26C G31C, the self-cleavage worked out at 0.193.

Regarding U26A C33G, the self-cleavage came out at 0.395.

In the case of G25U U67A, the self-cleavage was found to be 0.145.

G25U U67C: the self-cleavage amounted to 0.212.

Consider G25U U67G, for which the self-cleavage stood at 0.237.

Regarding G25U A42U, the self-cleavage worked out at 0.163.

For the variant G25U A42C, the self-cleavage is 0.17.

Regarding U26C C32G, the self-cleavage was found to be 0.365.

As to U26C U46A, the self-cleavage was found to be 1.02.

Consider U26C U46G, for which the self-cleavage came out at 0.893.

Take U26C U46C: the self-cleavage was 0.95.

In the case of G25U C29A, the self-cleavage amounted to 0.198.

Consider G25U C29G, for which the self-cleavage is 0.161.

As for U26C C63A, the self-cleavage was found to be 0.614.

Consider U26C C63G, for which the self-cleavage turned out to be 0.599.

Regarding U26C C63U, the self-cleavage turned out to be 1.

As for G25C C33A, the self-cleavage is 0.307.

Turning to G25C C33U, the self-cleavage was determined as 0.258.

Take G25C C34G: the self-cleavage was found to be 0.14.

For G25C C34A, the self-cleavage is 0.197.

For the variant U26C G48C, the self-cleavage worked out at 0.988.

With U26C G48A, the self-cleavage came out at 0.982.

Regarding U26C U53C, the self-cleavage stood at 0.882.

For the variant U26C G50C, the self-cleavage came to 1.

Turning to U26C G50U, the self-cleavage was found to be 0.956.

Consider G25C U69C, for which the self-cleavage worked out at 0.333.

Take G25U C54A: the self-cleavage is 0.125.

In the case of G25U C54G, the self-cleavage came to 0.115.

In the case of G25U C54U, the self-cleavage is 0.121.

For U26A G48A, the self-cleavage is 0.846.

With U26A G48C, the self-cleavage worked out at 0.882.

As to G25U C32G, the self-cleavage was 0.158.

For the variant U26A G50C, the self-cleavage was 0.95.

For the variant U26A G50A, the self-cleavage came out at 0.871.

Turning to G25U U46G, the self-cleavage was 0.205.

As for G25U U46C, the self-cleavage was determined as 0.179.

With G25U U46A, the self-cleavage was found to be 0.105.

With G25C U55C, the self-cleavage came to 0.107.

With G25C U55A, the self-cleavage is 0.107.

Consider G25C U55G, for which the self-cleavage was 0.174.

On to U26C U62C, for which the self-cleavage amounted to 0.732.

Consider U26C U62A, for which the self-cleavage was determined as 0.832.

With U26C U61G, the self-cleavage was 0.693.

U26C U61A: the self-cleavage worked out at 0.874.

Take U26C U61C: the self-cleavage is 0.617.

For the variant U26C C39G, the self-cleavage amounted to 0.939.

U26C C39U: the self-cleavage stood at 0.85.

For G25C U46A, the self-cleavage is 0.18.

On to G25C U46G, for which the self-cleavage was found to be 0.192.

Consider U26A G47A, for which the self-cleavage was determined as 0.88.

Regarding U26A G47U, the self-cleavage came out at 0.932.
